Results as given in paper PMC2671562, “Structural and Functional Analyses of PAS Domain Interactions of the Clock Proteins Drosophila PERIOD and Mouse PERIOD2” (PLoS Biology, 2009).

B1: mouse PERIOD2 fragment mPER2[128–473], wild-type (domain or fragment, UniProt O54943 128-473, looked up)
chain: GKASTLATLKYALRSVKQVKANEEYYQLLMSSESQPCSVDVPSYSMEQVEGITSEYIVKNADMFAVAVSLVSGKILYISNQVASIFHCKKDAFSDAKFVEFLAPHDVSVFHSYTTPYKLPPWSVCSGLDSFTQECMEEKSFFCRVSVGKHHENEIRYQPFRMTPYLVKVQEQQGAESQLCCLLLAERVHSGYEAPRIPPEKRIFTTTHTPNCLFQAVDERAVPLLGYLPQDLIETPVLVQLHPSDRPLMLAIHKKILQAGGQPFDYSPIRFRTRNGEYITLDTSWSSFINPWSRKISFIIGRHKVRVGPLNEDVFAAPPCPEEKTPHPSVQELTEQIHRLLMQPVP
notes: also called N-terminally extended PAS domain fragment
B2: mouse PERIOD2 fragment mPER2[170–473] (domain or fragment)
chain: GSSYSMEQVEGITSEYIVKNADMFAVAVSLVSGKILYISNQVASIFHCKKDAFSDAKFVEFLAPHDVSVFHSYTTPYKLPPWSVCSGLDSFTQECMEEKSFFCRVSVGKHHENEIRYQPFRMTPYLVKVQEQQGAESQLCCLLLAERVHSGYEAPRIPPEKRIFTTTHTPNCLFQAVDERAVPLLGYLPQDLIETPVLVQLHPSDRPLMLAIHKKILQAGGQPFDYSPIRFRTRNGEYITLDTSWSSFINPWSRKISFIIGRHKVRVGPLNEDVFAAPPCPEEKTPHPSVQELTEQIHRLLMQPVP
notes: two additional N-terminal residues (Gly168 and Ser169) seen in molecule 1 of the crystal, cloning artefacts; GST fusion from pGEX-6P2, GST removed with PreScission protease; also called crystallized mPER2 fragment
B3: Drosophila PERIOD fragment dPER[232–599], wild-type (domain or fragment)
chain: not shown
notes: GST fusion from pGEX-6P2, GST removed with PreScission protease
B4: dPER[232–599] M560D (domain or fragment)
chain: not shown
notes: also called dPER(M560D)
B5: dPER[232–599] W482E (domain or fragment)
chain: not shown
notes: also called dPER(W482E)

Target: the molecule itself
Assay: AUC; sedimentation equilibrium, interference optics, 10 °C, 25 mM HEPES pH 7.7, 100 mM NaCl, 2 mM DTE; four starting concentrations from stocks of 0.8–2 mg/ml; dimer to monomers, K D = 1/K A

Row | Protein | Kd [nM]
1 | B1 | 2250
2 | B2 | 1340
3 | B3 | 200
4 | B4 | 7140
5 | B5 | 3700
